According to publication PMC5737868:

Legend:
[1] = biological target: FUS-P525L-NLUC-HA / NLUC-FUS-P525L-HA (full-length) (UniProt P35637 1-526, P525L); experiment: NanoBRET
FUS-NLUC-FLAG = FUS-NLUC-FLAG (UniProt P35637 1-526, P525L); experiment: NanoBRET

CTGCTAGCCTCTGGATTTGA (XNA, full phosphorothioate, 2'-fluoro-modified gapmer (pattern not in the material)) [2'-F PS-ASO ION-766637]
Kd [1]: 2.2 ± 0.2 nM

CUGCUAGCCUCUGGAUUUGA (ssRNA) [PO-RNA JB-39]
Kd (FUS-NLUC-FLAG): 143 ± 38.2 nM
